One data set deals with K3a,eRh2. Description: Covalent modification of E3gX peptides with diazo reagent 1 catalysed by K3a,eRh2. It is filed as biochemical. Conditions: for krel, relative modification rate: initial rate of product formation at 1 hour, corrected for catalyst concentration; for modification of variable residue (in words): metallopeptide catalyst K3a,eRh2 and diazo reagent 1. The method, then:
Binding the dirhodium center at positions a and e ensures that the metal will be held proximal to the coil-coil interface, and the a, e spacing serves to stabilize the necessary helical structure.
Covalent modification of variable residue g was then examined.
Relative modification rates (krel) were based on conversion at 1 hour, which corrects for catalyst loading and assumes first-order catalysis.

For a further data set, the target named is T1, bZip domain of c-Fos (Homo sapiens, UniProt P01100, A167K/D174T/K188A/T181D).
T1 sequence (P01100 162-193 A167K/D174T/T181D/K188A limits assumed): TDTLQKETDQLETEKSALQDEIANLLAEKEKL
Description: Covalent modification of c-Fos with diazo reagent 1 catalysed by metallopeptide. The class given is biochemical. Conditions: for c-Fos residue modified: MS/MS fragmentation analysis; for conversion of c-Fos: 45 h, metallopeptide and diazo 1 added in small portions. The protocol:
FIG. 5. MALDI-TOF MS spectra of c-Fos (SEQ ID NO: 15) modification catalyzed by Jun(Rh2) (A) (SEQ ID NO: 14) and Max(Rh2) (B)(SEQ ID NO: 16). Reactions were 100 μM in substrate at pH 6.5. Metallopeptide and diazo 1 were added portion-wise to final concentrations of 200 μM and 5 mM, respectively. Sequences illustrate the expected alignment of the coiled coils and the site of modification (B) In the inset table, the ratio in parentheses indicates the ratio of singly to doubly modified product.
Metallopeptide Jun(Rh2) was prepared based on an affinity-optimized c-Jun variant with glutamate residues in g and […] positions. The target was the bZip domain of c-Fos, an oncogene product that regulates transcription by forming a heterodimeric coiled coil with c-Jun.
(§1) Purified Jun variant was metalated with Rh2(OAc)2(tfa)2 in aqueous buffer. […] In initial studies at 4° C., crude Jun(Rh2) directly from the metalation process could be used in modification reactions with activity identical to that of purified material, thus avoiding time-consuming and unnecessary material loss that accompanied isolation.
Catalytic activity was also investigated for a second metallopeptide based on the leucine-zipper Max.
For Jun(Rh2), MALDI-TOF MS/MS analysis established that Gln19 (position e) was modified. […] In the case of Max(Rh2), the dominant fragmentation pathway was cleavage of the modifying group.

A further data set is described as follows: Solubility on isolation. Conditions: isolation after metalation in aqueous buffer. It is filed as physicochemical. The protocol: as §1
Data set [1] in a line: Circular dichroism (CD) helicity of peptides and dirhodium adducts. The class given is physicochemical. Conditions: for [θ]220, residual molar ellipticity: CD at 220 nm, water; for fH, helicity content: calculated from [θ]220, fH = ([θ]220 − [θ]c)/([θ]inf − [θ]c); for Rel. Hel %, relative helicity: calculated with [θ]inf = [θ]220 of EE4-Rh2(OAc)2; for fH (TFE), helicity content: calculated with [θ]inf = [θ]220 of EE4 in 100% TFE; for effect of dirhodium binding on helicity (in words): CD spectroscopy. The method, then: Peptides were prepared having 18 amino acids and a propensity toward helicity due to an alanine-rich sequence (Table 1). A complete turn of an α-helix requires about three or four amino acids, so carboxylate side chains (Asp, Glu) were placed in an i, i+3 or an i, i+4 relationship.
The peptides reacted with cis-Rh2(OAc)2(TFA)2, producing adducts with bridging dirhodium centers for both i, i+3 and i, i+4 carboxylate spacing. Circular dichroism (CD) spectroscopy assessed the effect of dirhodium binding on helicity.

For another data set, the target named is T2, Fos (Homo sapiens, UniProt P01100, A167K/D174T/K188A/T181D).
T2 sequence (P01100 162-193 A167K/D174T/T181D/K188A limits assumed): T1 sequence (P01100 162-193 A167K/D174T/T181D/K188A limits assumed)
Description: Temperature-dependent folding of Fos-metallopeptide coiled coil. The class given is physicochemical. Conditions: Fos-Max(Rh2) temperature-dependent folding. The method, then: Amazingly, site-specific reactivity can be templated on molecular recognition in interactions with such low affinities that they are uncharacterizable by available methods. Because metallopeptide Jun(Rh2) has ≧100 μM affinity for Fos, reactions at 10 μM successful even though the desired Fos-Jun(Rh2) dimer is not the major species.

The mark [2] stands for this setting: 50 mol % K3a,eRh2, 10 mM diazo 1 added in two portions, 50 μM substrate, pH 6.2.
Setting [3] is: 20 mol % K3a,eRh2, 10 mM diazo 1 added in two portions, 50 μM substrate, pH 6.2.

Marks after values point to notes of the source that are not given here. Residues, ends and D or L forms follow the SMILES beside them. No end group written: not given here.

The values that follow come from patent US8476407B2, “Metallopeptide catalysts” (William Marsh Rice University, priority 2009, dated 2013).

As for `N=C(N)NCCC[C@H](N)C(=O)O` [Arg], the “% conv. at 24 h” value with K3a,eRh2 (setting [2]) worked out at 73%. Moreover, the “krel, relative modification rate” value with K3a,eRh2 turned out to be 100.
With `N[C@@H](CC(=O)O)C(=O)O` [Asp], the “% conv. at 24 h” value with K3a,eRh2 (setting [3]) turned out to be 53%. In the data set on K3a,eRh2, the “krel, relative modification rate” value came out at 100 and the “modification of variable residue (in words)” value (from here on “modification … (in words)”) is listed as “modest conversion”.
As for `N[C@@H](CS)C(=O)O` [Cys], the “% conv. at 24 h” value in the data set with K3a,eRh2 (10 mol % K3a,eRh2, 2.5 mM diazo 1, 50 μM substrate, pH 6.2, room temperature) was 78%. Moreover, the “krel, relative modification rate” value with K3a,eRh2 worked out at 560.
Turning to `NC(=O)CC[C@H](N)C(=O)O` [Gln], the “% conv.” value in the data set on K3a,eRh2 (10 mol % K3a,eRh2, reaction time 6 hours, 2.5 mM diazo 1, 50 μM substrate, pH 6.2) is on record as greater than 95%. Besides, the “krel, relative modification rate” value in the data set on K3a,eRh2 came out at 260.
As to `N[C@@H](CCC(=O)O)C(=O)O` [Glu], the “% conv. at 24 h” value in the data set on K3a,eRh2 (setting [3]) was determined as 76%. Besides, in the data set with K3a,eRh2, the “krel, relative modification rate” value was found to be 130.
For `N[C@@H](Cc1c[nH]cn1)C(=O)O` [His], the “% conv. at 24 h” value in the data set on K3a,eRh2 (setting [2]) was 17^g %. In the data set with K3a,eRh2, the “krel, relative modification rate” value worked out at 20 and the “modification … (in words)” value is “modest conversion”.
For `CC[C@H](C)[C@H](NC(=O)[C@H](CCC(N)=O)NC(=O)[C@H](CCC(N)=O)NC(=O)[C@H](CCCNC(=N)N)NC(=O)[C@H](CC(C)C)NC(=O)[C@H](CO)NC(=O)[C@H](CC(N)=O)NC(=O)[C@H](C)NC(=O)[C@@H](NC(=O)[C@H](CO)NC(=O)[C@H](C)NC(=O)[C@H](CCC(=O)O)NC(=O)[C@H](CO)NC(=O)[C@H](CO)NC(=O)[C@@H](NC(=O)[C@H](CCC(=O)O)NC(=O)[C@H](C)NC(=O)[C@H](CCCCN)NC(=O)[C@H](CC(C)C)NC(=O)[C@@H](NC(=O)[C@H](CCCCN)NC(=O)[C@@H](NC(=O)[C@H](CCCNC(=N)N)NC(=O)[C@H](CCC(N)=O)NC(=O)[C@H](CCC(N)=O)NC(=O)[C@H](CC(C)C)NC(=O)[C@H](CCC(N)=O)NC(=O)[C@H](C)NC(=O)[C@H](C)NC(C)=O)C(C)C)[C@@H](C)O)[C@@H](C)CC)[C@@H](C)O)C(=O)N[C@@H](C)C(=O)N[C@@H](CCC(N)=O)C(=O)N[C@@H](CC(C)C)C(N)=O` [Jun(Rh2)] (Ac-AAQLQQRVKTLKAEISSEASTANSLRQQIAQL-NH2; N-terminus and C-terminus assumed), the c-Fos residue modified result at bZip domain of c-Fos is “Gln19”. In “Solubility on isolation”, the solubility result was “poor solubility”.
On to `NCCCC[C@H](N)C(=O)O` [Lys], for which the “% conv. at 24 h” value with K3a,eRh2 (setting [2]) is 8^g %. Further, in the data set with K3a,eRh2, the “krel, relative modification rate” value was 20 and the “modification … (in words)” value is reported as “modest conversion”.
With `C[C@@H](O)[C@H](N)C(=O)O` [Thr], in the data set on K3a,eRh2, the “modification … (in words)” value is “not observed”.
Take Ac-KAEAAAEAK-NH2 [sEE4]: in data set [1], the [θ]220, residual molar ellipticity is -400 deg cm^2 dmol-res^-1; the “fH, helicity content” value is given as 9; the “Rel. Hel %, relative helicity” value was 13%; the “fH (TFE), helicity content” value was 8.
As to Ac-YGKAAAADAAADKAAAAK-NH2 [DD4], in data set [1], the [θ]220, residual molar ellipticity was -5700 deg cm^2 dmol-res^-1; the “effect of dirhodium binding on helicity (in words)” value (shortened to “effect of dirhodium binding”) is listed as “increased helicity”; the “fH, helicity content” value is recorded as 22; the “Rel. Hel %, relative helicity” value is 41%. For the same compound, the “fH (TFE), helicity content” value in data set [1] is 25.
The corresponding values for Ac-YGKAAAADAADAKAAAAK-NH2 [DD3] are -5300 deg cm^2 dmol-res^-1, “completely disrupt helicity”, 21, 39% and 24.
The corresponding values for Ac-YGKAAAADAAEAKAAAAK-NH2 [DE3] are -8000 deg cm^2 dmol-res^-1, “completely disrupt helicity”, 29, 52% and 32.
Regarding Ac-YGKAAAADAGADKAAAAK-NH2 [DD4G], in data set [1], the [θ]220, residual molar ellipticity is -1100 deg cm^2 dmol-res^-1; the “fH, helicity content” value is 9; the “Rel. Hel %, relative helicity” value is listed as 17%; the “fH (TFE), helicity content” value is on record as 11.
For the compound Ac-YGKAAAAEAAAEKAAAAK-NH2 [EE4], in data set [1], the [θ]220, residual molar ellipticity is -12300 deg cm^2 dmol-res^-1; the “effect of dirhodium binding” value is “increased helicity”; the “fH, helicity content” value is 41; the “Rel. Hel %, relative helicity” value is listed as 75%. In data set [1], the “fH (TFE), helicity content” value was 46.
As for Ac-YGKAAAAEAADAKAAAAK-NH2 [ED3], in data set [1], the [θ]220, residual molar ellipticity was -11400 deg cm^2 dmol-res^-1; the “effect of dirhodium binding” value is on record as “completely disrupt helicity”; the “fH, helicity content” value was 38; the “Rel. Hel %, relative helicity” value is reported as 70%. In data set [1], the “fH (TFE), helicity content” value was 43.
The corresponding values for Ac-YGKAAAAEAAEAKAAAAK-NH2 [EE3] are -11500 deg cm^2 dmol-res^-1, “increased helical”, 39, 70% and 44.
For the compound Ac-YGKAAAAEAGADKAAAAK-NH2 [ED4G], in data set [1], the [θ]220, residual molar ellipticity was -1100 deg cm^2 dmol-res^-1; the “fH, helicity content” value is on record as 9; the “Rel. Hel %, relative helicity” value is recorded as 17%; the “fH (TFE), helicity content” value is 10.
The corresponding values for Ac-YGKAAAAEAGAEKAAAAK-NH2 [EE4G] are -1900 deg cm^2 dmol-res^-1, 12, 21% and 13.
For Ac-YGKAAAAEAGEAKAAAAK-NH2 [EE3G], in data set [1], the [θ]220, residual molar ellipticity is -2500 deg cm^2 dmol-res^-1; the “effect of dirhodium binding” value is on record as “becomes helical”; the “fH, helicity content” value is reported as 13; the “Rel. Hel %, relative helicity” value is 24%. For the same compound, the “fH (TFE), helicity content” value in data set [1] is recorded as 15.
For the compound “Max(Rh2): dirhodium metallopeptide based on the leucine-zipper Max (SEQ ID NO: 16) (ARRKNFTFQQNINNLKRQEALLEQQVRAL; also: dirhodium metal complex)”, the entries for the “conversion of c-Fos” value with bZip domain of c-Fos (4° C.) and in the data set with bZip domain of c-Fos (−15° C.) were 72% and 83%, respectively. Besides, the c-Fos residue modified entry with bZip domain of c-Fos is “both Glu14 and Glu21”. In addition, in the data set with Fos, the TM was found to be 20 °C.
